Results on 84 variants are retold here after the RNAGym collection of RNA variant scans (doi:10.1073/pnas.2313332121).

Fewer inactive variants are shown than the library holds.

The labels stand for the following.
B1: TPR 5TU (parent)
chain: GGAUCUUCUCGAUCUAACAAAAAAGACAAAUCUGCCACAAAGCUUGAGAGCAUCUUCGGAUGCAGAGGCGGCAGCCUUCGGUGGCGCGAUAGCGCCAACGUUCUCAACUAUGACACGCAAAACGCGUGCUCCGUUGAAUGGAGUUUAUCAUG

In this series the parent is B1. The series is described as follows: polymerase ribozyme fitness, log enrichment relative to wild type (log ratio); higher = more active; in vitro selection for triplet polymerase activity. An outline of the steps: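 Input and output libraries were sequenced on Illumina after a single in vitro selection round, run in triplicate on PCR-built, transcribed mutant libraries of each subunit of a heterodimeric triplet polymerase ribozyme. Selection annealed libraries to a biotinylated primer, the partner subunit and triplets, incubated them frozen at −7 °C, then gel-excised extended constructs for streptavidin-bead capture and RT-PCR. Genotypes with ≥10 input reads and ≥1 read per output were kept. Fitness is the logarithm, taken in base 2, of genotype enrichment divided by wild-type enrichment, using inverse-variance-weighted replicate averages.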
Regarding A12G U56A U144A, the “polymerase ribozyme fitness (log ratio)” value was found to be 0.103.

On to A12G C36A U55G G94A G141C U148G, for which the “polymerase ribozyme fitness (log ratio)” value is not above -4.2.

For the variant A12C C35A C85G C103G C118G G141C, the “polymerase ribozyme fitness (log ratio)” value was not above -4.2.

In the case of A12G C57U C87U C103G, the “polymerase ribozyme fitness (log ratio)” value was -2.19.

In the case of A12G C96A U134C A138G G141C, the “polymerase ribozyme fitness (log ratio)” value is -3.97.

Regarding A12U A16U A17U C27U A47U G48A C76G G86U U145A G152U, the “polymerase ribozyme fitness (log ratio)” value was not above -4.2.

Regarding A12G A23C G25A A41G G94C C96U C116U G143C, the “polymerase ribozyme fitness (log ratio)” value was not above -4.2.

For G11U G48C C79A C93G A119G G141U, the “polymerase ribozyme fitness (log ratio)” value is not above -4.2.

As for A12G G92C G133U, the “polymerase ribozyme fitness (log ratio)” value is -3.59.

On to A12G C87G, for which the “polymerase ribozyme fitness (log ratio)” value was -3.83.

A12G C87U: the “polymerase ribozyme fitness (log ratio)” value is -0.54.

As to A12G U56A C76A G143U, the “polymerase ribozyme fitness (log ratio)” value was -3.46.

As for A12U A16G A30U C79G C95A U144A, the “polymerase ribozyme fitness (log ratio)” value is not above -4.2.

With A12U A97U, the “polymerase ribozyme fitness (log ratio)” value is -0.954.

On to A12U, for which the “polymerase ribozyme fitness (log ratio)” value was -0.161.

Regarding A12G, the “polymerase ribozyme fitness (log ratio)” value turned out to be 0.116.

As for A12C, the “polymerase ribozyme fitness (log ratio)” value came out at 0.0783.

In the case of A12C A60U C75G G88C A91G U109G, the “polymerase ribozyme fitness (log ratio)” value was not above -4.2.

Turning to A12G U61A C76A A106G, the “polymerase ribozyme fitness (log ratio)” value was -3.97.

For the variant A12G A49C G74A C96U U102G G112U C125U, the “polymerase ribozyme fitness (log ratio)” value was not above -4.2.

Consider A12C U53A G58U C99G U151C, for which the “polymerase ribozyme fitness (log ratio)” value was not above -4.2.

For A12U A21C G70C G84U C132A G136A A142U, the “polymerase ribozyme fitness (log ratio)” value was not above -4.2.

Turning to A12U C35A U44A G92C U127A C129G G143A U151C, the “polymerase ribozyme fitness (log ratio)” value is not above -4.2.

Turning to A12C A142C, the “polymerase ribozyme fitness (log ratio)” value is -1.32.

Turning to A12G A41G C85G A106G, the “polymerase ribozyme fitness (log ratio)” value is -1.5.

Regarding A12G U13G C38A A41U C95A U102C A137G, the “polymerase ribozyme fitness (log ratio)” value is not above -4.2.

As for A12G C85U C118G C125A, the “polymerase ribozyme fitness (log ratio)” value was -0.473.

As for G11U C14U C72U G143A, the “polymerase ribozyme fitness (log ratio)” value was not above -4.2.

With G11U A29C A89C C125U, the “polymerase ribozyme fitness (log ratio)” value is -4.16.

A12C A41C C54U G94U A121G G140C: the “polymerase ribozyme fitness (log ratio)” value was not above -4.2.

Consider A12G C85A C118A G136U, for which the “polymerase ribozyme fitness (log ratio)” value is -3.83.

In the case of A12G G83C, the “polymerase ribozyme fitness (log ratio)” value was -0.586.

For the variant G11U C27U A29C C75U G83C G126U, the “polymerase ribozyme fitness (log ratio)” value was not above -4.2.

Take A12G A41C A47C C72A C85U G133A A150U: the “polymerase ribozyme fitness (log ratio)” value is not above -4.2.

Regarding A12C C99A A119G U145C, the “polymerase ribozyme fitness (log ratio)” value is -1.83.

A12U A21U A39C G92A U109G A137G: the “polymerase ribozyme fitness (log ratio)” value was not above -4.2.

As to A12U A19C C95U C105A, the “polymerase ribozyme fitness (log ratio)” value is -1.03.

A12G C14U G92U U111C A138U: the “polymerase ribozyme fitness (log ratio)” value was not above -4.2.

For A12G C95U, the “polymerase ribozyme fitness (log ratio)” value turned out to be 0.599.

As to A12G A24U U53A U82G G84A A89U, the “polymerase ribozyme fitness (log ratio)” value is -3.13.

Turning to A12C A21U U53A G59C A60G G84A, the “polymerase ribozyme fitness (log ratio)” value is -0.862.

For A12C U61G C75G C96U C131U G140U G141A, the “polymerase ribozyme fitness (log ratio)” value is not above -4.2.

As to A12U C35G G46A C57G A60C G92U C108G G143A A147G, the “polymerase ribozyme fitness (log ratio)” value was not above -4.2.

Turning to G11U C87G, the “polymerase ribozyme fitness (log ratio)” value was -4.09.

In the case of A12C C85G A122C, the “polymerase ribozyme fitness (log ratio)” value was -2.14.

As to A12U A39C A52G C57G, the “polymerase ribozyme fitness (log ratio)” value is -4.2.

Take G11U U53A G65A A73U G83C U144A: the “polymerase ribozyme fitness (log ratio)” value was not above -4.2.

Consider G11U C54U U77G G92U U145A A147U, for which the “polymerase ribozyme fitness (log ratio)” value is not above -4.2.

Turning to A12G U45G C69G A91C A115G G133A G143U, the “polymerase ribozyme fitness (log ratio)” value is not above -4.2.

With A12C G81A G92C C99U G124C G133U, the “polymerase ribozyme fitness (log ratio)” value is not above -4.2.

As for A12C A19U U31G A41C C93A G141A, the “polymerase ribozyme fitness (log ratio)” value is -3.98.

Take G11U C51U A113U C132A U139G U146A: the “polymerase ribozyme fitness (log ratio)” value was not above -4.2.

With G11U C103G C123G, the “polymerase ribozyme fitness (log ratio)” value was -2.44.

A12U C18A C36U C57A C95U A97G A98U C125U: the “polymerase ribozyme fitness (log ratio)” value was -3.95.

In the case of A12C A29C C85A G133A, the “polymerase ribozyme fitness (log ratio)” value was not above -4.2.

Consider A12G U53G G59A C95G A98C U146A, for which the “polymerase ribozyme fitness (log ratio)” value is -1.26.

For G11U A66C C76U U90G U102G U148G, the “polymerase ribozyme fitness (log ratio)” value is not above -4.2.

Turning to A12C A47U U55A, the “polymerase ribozyme fitness (log ratio)” value is -1.41.

Consider A12G A20G A60G, for which the “polymerase ribozyme fitness (log ratio)” value is -0.113.

With A12G U55A, the “polymerase ribozyme fitness (log ratio)” value was found to be 0.668.

As for A12G U55G, the “polymerase ribozyme fitness (log ratio)” value was -2.

Take A12U C35A C79U C96A A110G C118U C125A: the “polymerase ribozyme fitness (log ratio)” value is not above -4.2.

Regarding A12C C85G, the “polymerase ribozyme fitness (log ratio)” value was -2.59.

Consider A12U C18G G92C, for which the “polymerase ribozyme fitness (log ratio)” value is -2.01.

In the case of A12U A49C U53A C85U C118G U151G, the “polymerase ribozyme fitness (log ratio)” value was not above -4.2.

For the variant A12C U13G C18G A21G U101A A110U A120U G136C G140U G152U, the “polymerase ribozyme fitness (log ratio)” value was not above -4.2.

For the variant A12C G133C U145A, the “polymerase ribozyme fitness (log ratio)” value is -1.11.

For G11U G34A G88A G124A, the “polymerase ribozyme fitness (log ratio)” value was not above -4.2.

As to G11U C93U A119C C149U, the “polymerase ribozyme fitness (log ratio)” value is -3.06.

With A12C A19C U45G G84U A142C, the “polymerase ribozyme fitness (log ratio)” value is not above -4.2.

On to A12G U31G C118A A120G G141C, for which the “polymerase ribozyme fitness (log ratio)” value is -2.6.

Turning to A12G G141C, the “polymerase ribozyme fitness (log ratio)” value is -0.0174.

In the case of A12C C38A C93U, the “polymerase ribozyme fitness (log ratio)” value was -1.62.

For A12C U44A U56G G83U A89U C95A A98C C103G A107G, the “polymerase ribozyme fitness (log ratio)” value was not above -4.2.

On to A12G G58U C116U A150G, for which the “polymerase ribozyme fitness (log ratio)” value is -1.58.

As to A12C C38G C85A C116A A120G, the “polymerase ribozyme fitness (log ratio)” value is -1.83.

As to G11U U56A C79G C87G C96U A142G, the “polymerase ribozyme fitness (log ratio)” value was not above -4.2.

As to A12C A17G U31G U44A C93U C99U A122C U134A A142G, the “polymerase ribozyme fitness (log ratio)” value was not above -4.2.

Consider G11U G94A A98C, for which the “polymerase ribozyme fitness (log ratio)” value was -1.81.

As for A12G A24U C87U, the “polymerase ribozyme fitness (log ratio)” value was 0.648.

A12C C35U G86A C93U: the “polymerase ribozyme fitness (log ratio)” value is -1.43.

For the variant A12U A20U G81A C87A C96A U102C C125U, the “polymerase ribozyme fitness (log ratio)” value was not above -4.2.

G11U C32U C93G A107G: the “polymerase ribozyme fitness (log ratio)” value is not above -4.2.

In the case of G11U C38A C125U, the “polymerase ribozyme fitness (log ratio)” value was -2.71.
